Read-outs that look alike come from different tables or passages of the source.
T1: extracellular domain of the IL-4Rα (IL-4 binding protein) (UniProt P24394 26-232, limits assumed, biotinylated at Cys-206)
T1 construct: extracellular domain; Immobilised on the streptavidin-coated matrix of the biosensor through biotin at Cys-206; also called IL4BP; IL-4 specific receptor
T1 sequence (looked up): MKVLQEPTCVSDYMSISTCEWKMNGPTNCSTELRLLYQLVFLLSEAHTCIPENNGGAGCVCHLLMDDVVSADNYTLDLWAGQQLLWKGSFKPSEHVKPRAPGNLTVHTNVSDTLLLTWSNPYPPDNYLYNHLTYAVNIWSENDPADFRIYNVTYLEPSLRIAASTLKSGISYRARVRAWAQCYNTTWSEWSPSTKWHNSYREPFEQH

B1: Model 2 (peptide)
peptide: Ac-RMKQLEDKVERLLSRNYRLENEVARLKKLVG-NH2
modifications: not fully specified
notes: Synthetic peptide derived from the GCN4 leucine zipper, designed to form a non-covalent parallel coiled-coil dimer
B2: Model 1 (peptide)
peptide: Ac-RMKQLEDKVEELLSKNYRLENRVARLEKLVG-NH2
modifications: also: designed to form non-covalent parallel coiled-coil dimer
notes: as for B1

How the values were obtained:
[1] = target: T1, extracellular domain of the IL-4Rα …; test: biosensor (BIA2000), IL4BP biotinylated at Cys-206 on a streptavidin matrix, 25 C
[2] = target: T1, extracellular domain of the IL-4Rα …; test: as above; remark: listed apart in the source
[3] = target: T1, extracellular domain of the IL-4Rα …; test: biosensor (BIA2000), IL4BP immobilised on a streptavidin matrix, room temperature

Binder	Kd [1] [mM]	Kd [2] [mM]	binding result [3]
B1	4.08	4.08	
B2			no binding
